Square brackets hold non-standard residues; d marks the D form. Side chains are listed from the residue outwards. Ends that are not written are not given here. mPEG 40 kDa (SVA) = 40 kDa methoxy poly(ethylene glycol) succinimidyl valerate (mPEG-SVA); triazole linker = not defined here; Fs = not defined here
B1: G4 (peptide)
peptide: KEFEFLDFDFLPETEPL
modifications: not fully specified (residues 3, 5, 8, 14); also: biotinylated for SPR, place not given here
notes: Synthetic glycosulfonopeptide analogue of the N-terminus of PSGL-1; also called compound 1
B2: PEG40-G4 (P-G4) (peptide)
peptide: {mPEG 40 kDa (SVA)}-KE[Fs]E[Fs]LD[Fs]DFLPET([triazole linker-sLe^x])EPL
modifications: reading uncertain
notes: also called PEG-G4; pegylated click compound

How the values were obtained:
[1] = target: T1, human P-selectin-Ig chimera (human, UniProt P16109 42-771); assay: flow cytometry competition: inhibition of human P-selectin-Fc chimera (3 µg/mL) binding to human monocytes
T1 construct: No source is stated for the chimera used on the microarray and in SPR; also called P-Sel-Ig; P-sel-Ig

[2] = target: T1, human P-selectin-Ig chimera; assay: SPR (Biacore): biotinylated ligand on streptavidin chip, P-selectin-Ig flowed at 0.4-100 nM
[3] = target: T2, murine P-selectin-Fc chimera (murine, UniProt Q01102 42-709); assay: flow cytometry competition: inhibition of murine P-selectin-Fc chimera (3 µg/mL) binding to murine monocytes
T2 construct: Bought from R&D Systems; also called mouse P-selectin chimera; species-specific P-selectin-Fc chimera; not shown: Fc part
T2 sequence (looked up): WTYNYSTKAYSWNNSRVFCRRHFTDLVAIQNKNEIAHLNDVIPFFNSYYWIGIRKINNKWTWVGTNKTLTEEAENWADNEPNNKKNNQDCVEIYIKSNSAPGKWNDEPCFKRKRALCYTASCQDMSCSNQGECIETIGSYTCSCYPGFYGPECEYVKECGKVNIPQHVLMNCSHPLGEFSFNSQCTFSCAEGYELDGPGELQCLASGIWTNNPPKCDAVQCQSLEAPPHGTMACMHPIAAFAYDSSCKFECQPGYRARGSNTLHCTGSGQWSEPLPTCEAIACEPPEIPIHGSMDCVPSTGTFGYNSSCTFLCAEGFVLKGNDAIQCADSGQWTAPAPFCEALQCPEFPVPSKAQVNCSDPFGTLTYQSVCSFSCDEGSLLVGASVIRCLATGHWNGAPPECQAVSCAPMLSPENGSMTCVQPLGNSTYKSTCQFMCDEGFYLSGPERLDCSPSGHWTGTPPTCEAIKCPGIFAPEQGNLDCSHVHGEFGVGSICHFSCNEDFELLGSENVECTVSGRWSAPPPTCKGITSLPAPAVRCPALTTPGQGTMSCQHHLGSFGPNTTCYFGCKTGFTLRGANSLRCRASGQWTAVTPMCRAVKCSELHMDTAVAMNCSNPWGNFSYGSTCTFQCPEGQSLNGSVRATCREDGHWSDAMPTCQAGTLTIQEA

[4] = target: T1, human P-selectin-Ig chimera; assay: flow cytometry competition: inhibition of human P-selectin-Fc chimera (3 µg/mL) binding to human neutrophils
[5] = target: T1, human P-selectin-Ig chimera; assay: SPR (Biacore): biotinylated G4 on streptavidin chip, P-sel-Ig flowed at 0.4-100 nM, 1:1 model
[6] = target: T2, murine P-selectin-Fc chimera; assay: flow cytometry competition: inhibition of murine P-selectin-Fc chimera (3 µg/mL) binding to murine neutrophils

T1 sequence (P16109 42-771, change not shown): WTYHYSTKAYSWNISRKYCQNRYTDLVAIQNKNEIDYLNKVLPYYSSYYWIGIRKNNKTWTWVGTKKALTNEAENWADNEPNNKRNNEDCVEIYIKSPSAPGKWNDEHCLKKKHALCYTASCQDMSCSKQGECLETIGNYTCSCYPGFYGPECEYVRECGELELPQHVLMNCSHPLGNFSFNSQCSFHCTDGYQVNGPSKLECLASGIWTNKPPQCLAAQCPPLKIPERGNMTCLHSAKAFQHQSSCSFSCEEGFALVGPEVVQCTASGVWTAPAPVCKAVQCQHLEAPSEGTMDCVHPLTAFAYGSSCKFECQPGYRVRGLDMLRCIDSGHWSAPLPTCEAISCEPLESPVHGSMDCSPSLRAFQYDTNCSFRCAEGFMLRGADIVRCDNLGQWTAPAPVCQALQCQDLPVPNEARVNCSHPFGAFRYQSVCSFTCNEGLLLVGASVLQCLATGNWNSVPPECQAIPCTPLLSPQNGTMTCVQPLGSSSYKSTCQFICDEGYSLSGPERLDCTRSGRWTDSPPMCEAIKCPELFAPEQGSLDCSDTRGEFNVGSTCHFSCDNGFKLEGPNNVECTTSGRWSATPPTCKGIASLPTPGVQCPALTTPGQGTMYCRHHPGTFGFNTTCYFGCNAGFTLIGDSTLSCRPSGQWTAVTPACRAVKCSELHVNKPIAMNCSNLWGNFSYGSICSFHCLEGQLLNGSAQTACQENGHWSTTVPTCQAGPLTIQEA

Row | Binder | IC50 [1] [µM] | Kd [2] [µM] | IC50 [3] [µM] | IC50 [4] [µM] | Kd [5] [µM] | IC50 [6] [µM]
1 | B1 | 16 | 0.05 | 10 | 13 | 0.069 | 
2 | B2 | 12 |  | 6 | 9 |  | 9

Source: patent US20240293553A1 (BETH ISRAEL DEACONESS MEDICAL CENTER, published 2024)
